Data on eleven molecules can be found in patent US5736143, “Anti-inflammatory, tolerogenic and immunoinhibiting properties of carbohydrate binding-peptides” (Alberta Research Council, dated 1998).

No end group written: not given here. *: point of attachment. Biotin = O=C1N[C@H]2[C@H](CS[C@H]2CCCCC(=O)*)N1

The labels stand for the following.
T1: asialoagalactofetuin (Bos taurus (Bovine), UniProt P12763, glycans without sialic acid and galactose (asialoagalacto-))
T1 sequence: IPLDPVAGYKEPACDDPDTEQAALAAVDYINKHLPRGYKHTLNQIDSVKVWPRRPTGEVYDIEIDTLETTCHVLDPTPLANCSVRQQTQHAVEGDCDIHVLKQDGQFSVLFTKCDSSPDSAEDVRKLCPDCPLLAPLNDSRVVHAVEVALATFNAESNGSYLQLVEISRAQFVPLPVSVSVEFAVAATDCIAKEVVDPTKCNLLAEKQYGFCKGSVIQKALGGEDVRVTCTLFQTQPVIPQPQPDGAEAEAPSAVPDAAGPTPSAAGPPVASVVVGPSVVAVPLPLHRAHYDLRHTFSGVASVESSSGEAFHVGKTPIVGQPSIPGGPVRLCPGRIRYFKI

T2: asialofetuin (Bos taurus (Bovine), UniProt P12763, glycans without sialic acid (asialo-))
T2 sequence: T1 sequence

B1: S3P1 (peptide)
peptide: PKALFTQQGGAYGRC
B2: ACS2P1 (peptide)
peptide: PQEQITQHGSPYGRC
modifications: also: acetylated, site not given here
B3: S3P2 (peptide)
peptide: VAPGIVIPPKALFTQQGGAYGRC
B4: S3P9a (peptide)
peptide: RLLASTNSRLCAVFVRDG
B5: S2P2 (peptide)
peptide: STPGIVIPPQEQITQHGSPYGRC
B6: ACS2P1-biotin (peptide)
peptide: Biotin-PQEQITQHGSPYGRC-NH2
modifications: also: acetylated, position not given here
B7: fetuin (other)
chain: T1 sequence
modifications: sialylated glycans (multiple copies of the αNeu5Ac(2→3)βGal(1→4)βGlc- structure)

For assay [1], the target named is pertussis toxin (Bordetella pertussis) (UniProt P04977).
In assay [2] the target is fetuin (Bos taurus (Bovine)) (UniProt P12763). Description: inhibition ELISA; competitor MAL-biotin on coated fetuin; peptide 4.4 mg/mL.
For assay [3] the target is unchanged. Kind of assay: inhibition ELISA; competitor PT-biotin on coated fetuin; peptide 4.4 mg/mL.
Assay [4] has the same target. Kind of assay: inhibition ELISA; competitor WGA-biotin on coated fetuin; peptide 4.4 mg/mL.
Assay [5] shares this target. Description: inhibition ELISA; competitor SNA-biotin on coated fetuin; peptide 4.4 mg/ml (Table II prints -2 ± 2). (In an ELISA, binding on a coated surface is turned into a signal by an enzyme label.)
For assay [6], the target named is asialofetuin (Bos taurus (Bovine)) (UniProt P12763). Kind of assay: inhibition ELISA; competitor PT-biotin on coated asialofetuin; peptide 4.4 mg/mL.
For assay [7], the target named is fetuin (Bos taurus (Bovine)) (UniProt P12763). Description: inhibition ELISA; competitor MAL-biotin on coated fetuin; peptide 4.4 mg/ml (repeats Table II).
Assay [8] has the same target. Kind of assay: inhibition ELISA; competitor WGA-biotin on coated fetuin; peptide 4.4 mg/ml (repeats Table II).
Assay [9] has the same target. Kind of assay: inhibition ELISA; competitor PT-biotin on coated fetuin; peptide 4.4 mg/ml (repeats Table II).
Assay [10] has the same target. Kind of assay: inhibition ELISA; competitor ACS2P1-biotin on coated fetuin; peptide 5520 µM.
For assay [11], the target named is asialofetuin (Bos taurus (Bovine)) (UniProt P12763). Kind of assay: inhibition ELISA; competitor ACS2P1-biotin on coated asialofetuin; peptide 5520 µM.
For assay [12], the target named is fetuin (Bos taurus (Bovine)) (UniProt P12763). Description: inhibition ELISA; competitor SNA-biotin on coated fetuin; peptide 4.4 mg/mL.
Assay [13] deals with αNeuAc(2-3)βGal(1-3)βGlcNAc-BSA (bovine) (UniProt P02769). Description: direct ELISA, 0.5 µg biotinylated peptide on BSA conjugate coated at 50 µg/mL.
For assay [14], the target named is αNeuAc(2-3)βGal(1-3)βGlcNAc-BSA with (1-4) αFuc (bovine) (UniProt P02769). The description is as above.
Assay [15] deals with αNeuAc(2-3)βGal(1-4)βGlcNAc-BSA (bovine) (UniProt P02769). The assay is described as above.
The target in assay [16] is αNeuAc(2-6)βGal(1-4)βGlcNAc-BSA (bovine) (UniProt P02769). The description is as above.
The target of assay [17] is αNeuAc(2-3)βGal(1-4)βGlcNAc-BSA with (1-3) αFuc (bovine) (UniProt P02769). The description is as above.
Assay [18] concerns the target fetuin (Bos taurus (Bovine)) (UniProt P12763). Kind of assay: inhibition ELISA; competitor MAL-biotin on coated fetuin; peptide 1.0 mg/mL.
Assay [19] shares this target. Kind of assay: inhibition ELISA; competitor WGA-biotin on coated fetuin; peptide 1.0 mg/mL.
For assay [20] the target is unchanged. Kind of assay: inhibition ELISA; competitor WGA-biotin on coated fetuin.
Assay [21] has the same target. Kind of assay: inhibition ELISA; competitor SNA-biotin on coated fetuin; peptide 1.0 mg/mL.
The target is the same in assay [22]. Kind of assay: inhibition ELISA; competitor PT-biotin on coated fetuin; peptide 1.0 mg/mL.
Assay [23] shares this target. Description: inhibition ELISA; competitor PT-biotin on coated fetuin.
The target of assay [24] is T3, pertussis toxin (Bordetella pertussis, UniProt P04977). Description: cell-based or functional assay.
Assay [25] concerns the target B7. Kind of assay: inhibition ELISA; competitor WGA-biotin on coated fetuin.
For assay [26], the target named is B7. Kind of assay: inhibition ELISA; competitor ACS2P1-biotin on coated fetuin; concentration giving -50% (called IC50 in paragraph 228, n=2).
The target of assay [27] is T1, asialoagalactofetuin. Kind of assay: direct ELISA, 10 µg/ml biotinylated peptide on glycoprotein coated at 3 µg/ml.
Assay [28] has as its target T2, asialofetuin. Described as above.
The target of assay [29] is αNeuAc(2-3)βGal(1-3)βGlcNAc-BSA with (1-4) αFuc (bovine, UniProt P02769, conjugated carbohydrate αNeuAc(2-3)βGal(1-3)[αFuc(1-4)]βGlcNAc-). Description: direct ELISA, 0.1 µg biotinylated peptide on BSA conjugate coated at 50 µg/mL.
The target of assay [30] is αNeuAc(2-6)βGal(1-4)βGlcNAc-BSA (bovine, UniProt P02769, conjugated carbohydrate αNeuAc(2-6)βGal(1-4)βGlcNAc-). Described as above.
Assay [31] has as its target αNeuAc(2-3)βGal(1-4)βGlcNAc-BSA (bovine, UniProt P02769, conjugated carbohydrate αNeuAc(2-3)βGal(1-4)βGlcNAc-). The description is as above.
Assay [32] addresses αNeuAc(2-3)βGal(1-4)βGlcNAc-BSA with (1-3) αFuc (bovine, UniProt P02769, conjugated carbohydrate αNeuAc(2-3)βGal(1-4)[αFuc(1-3)]βGlcNAc-). The description is as above.
In assay [33] the target is αNeuAc(2-3)βGal(1-3)βGlcNAc-BSA (bovine, UniProt P02769, conjugated carbohydrate αNeuAc(2-3)βGal(1-3)βGlcNAc-). Described as above.
Assay [34] addresses T3, pertussis toxin. Description: inhibition ELISA; fetuin against ACS2P1-biotin on immobilised PT.

With SPYGRC (peptide), in assay [1], the Maximal Inhibitory Concentration for Greater than 50% Inhibition (CHO cell clumping) was determined as 480 pg/mL.
“SPYGRC (peptide; other documents disagree on this pair)”: the percent change in binding activity in [2] is -16%; in assay [3] it was 34%; in assay [4], 7%; in [6], 7%; in assay [10] it was -24%; in assay [11], -54%. Further, in assay [12], the percent change in binding activity is -2%. Moreover, the % changes in binding activity in assay [5] is -2%; in assay [7] it was -16%; in assay [8], 7%; in assay [9], 34%.
With “SPYGRC-biotin (peptide; other documents disagree on this pair)”, the % binding relative to fetuin in [13] amounted to 97%; in assay [14], 103%; in assay [15] it was 120%; in assay [16] it was 122%; in assay [17], 120%.
In general, IC50 refers to the point on the concentration scale where inhibition reaches its midpoint. For the molecule WGA(62-73) (peptide), the percent change in binding activity is -1% in assay [18], -9% in [19], -3% in [21] and -32% in assay [22]. Besides, the IC50 amounted to 3400 µM in assay [20] and 1500 µM in assay [23].
B1: the “Maximal Inhibitory Concentration for Greater than 50% Inhibition (CHO cell clumping)” value in [24] was above 300 ng/mL.
For the molecule B2, the half-inhibitory concentration (IC50) in assay [25] is 3250 µM; in assay [26] it was 4.1 µM.
Regarding B3, the “Maximal Inhibitory Concentration for Greater than 50% Inhibition (CHO cell clumping)” value in [24] was above 300 ng/mL.
Still for that read-out and setting: next, B4: above 300 ng/mL; B5: above 300 ng/mL.
For B6, the “% binding relative to fetuin” value in assay [27] was determined as 93%; in assay [28], 45%; in [29], 84%; in [30], 94%; in assay [31], 117%; in [32] it was 84%. Besides, in assay [33], the “% binding relative to fetuin” value was determined as 70%.
In turn, B7 returned an IC50 in [34] of 50 µM.
